Measurements from US20260034233A1.

Molecular target: Cyno Gal-3 (Macaca fascicularis)
Assay: SPR; kinetic fit, which the text calls poor for the monkey sample; immobilised partner and concentrations not given

B1: SIF001 (antibody, V domains shown)
VH: QVQLVQSGSELKKPGASVKVSCKASGYTFTNYGMNWVRQAPGQGLEWMGWINTYTGEPTYADDFKGRFVFSLDTSVSTAYLQISSLKNEDMAVYFCARYAMDYWGQGTLVTVSS
VL: EAVVTQEPSLTVSPGGTVTLTCRSSTGAVTTSNYANWVQQKPGQAFTGLIGGTSNRAPGTPARFSGSLLGDKAALTLLGAQPEDEAEYFCALWYSTHYVFGGGTKLTVL
- Kd: 64.1 nM
